Source: a protein production outcome set (Wang et al. 2014)

Assay: label from the status in PepcDB records
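Also: failed if final PepcDB status was selected cloned or expressed and not failed if soluble or beyond.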

Row | Sequence | protein production
1 | MVINLNDKQTKTSKEGLISVSHPLAAKIGKDVLDQGGNAMDAVIAIQLALNVVEPFASGIGGGGYLLYYEQSTGSITAFDARETAPEHVDKQFYLDDSGEYKSFFDMTTHGKTVAVPAIPKLFDYIHKRYAKLSLEDLINPAIELAIEGHAANWATEKYSRQQHARLTKYHETAQVFTHENQYWREGDWIVQPELGKTFQILREQGFNAFYKGDIAKQLVNVVKACGGTITLEDLAKYDIQIKAPISATFKDYDIYSMGPSSSGGITVIQILKLLEHVDLPSMGPRSVDYLHHLIQAMHLAYSDRAQYLADDNFHEVPVQSLIDDDYLKARSTLIDSNKANIDIEHGVVSDCISHTDVEENHTETTHFCVIDKEGNIASFTTSIGMIYGSGITIPGYGVLLNTTMDGFDVVDGGINEIAPYKRPLSNMAPTIVMYHGKPILTVGAPGAISIIASVAQTLINVLVFGMDIQQAIDEPRIYSSHPNRIEWEPQFSQSTILALIAHGHAMEHKPDAYIGDVHGLQVDPTTYEASGGSDDTREGTVMGGEVLVIRKQPLPYRQMYDSDGFRLYFNDVQLPLLADQVRWMHDKYWVDESVVRIIFPEVSAHIEDLRSYENAGENYIDIAWLARKYAYQVTLKDDGLYLTDDTYTSVKRNTNAYYRYDRDSITR | failed
2 | MVIPFARSVPLSPNTLTLLGFAVSVAAGVAFALGKPFEGGFLILFSGVFDILDGGVARAKGRITPFGGVLDSVCDRYSDGLMFLGIMAGAIYGRLSFAPFLGVEGWLWAGFALIGSFLVSYTRARAESAGCRKLSVGIAERTERMVILALGALSGFLGWALVLIAVFSHITMIQRVLRAKSILSSPSEPESQKP | failed
3 | MVIPFISGTLCQFQLSRWLITQAPALPCGPKLGAPTRQRRGCKVAQLWMYFLALAVVYLLPGPDMILLLQTGARQGKAQALATALGLALSRGCHVALAALGLAALFKAAPWTFDLVRLAGAAYLLWIGIQCLRANLLPNLEPGTAAATPLRWREAIQRGLLTNLLNPKALLFCSVLLPQFVDPQAGAVVPQFMTLGVLLVAVGGLFDCCYALAGAGLGRWMQRSPSAQRVQQWLFGSLLIGFALRLTFVQQA | failed
4 | MVIPSILEQAHALAGRAVGEGGIAVDATVGNGHDTAFLAQAVGAGGAVVGFDVQEEALVETRHRLEREALSAPVRLVHAGHQTLARHLEEAERGRVGAIMFNLGYLPGGDHSVVTRPETTRQALDAGTEALRPGGVITVVAYTGHEGGDEEADAVEAWASALPQAQFRALSYRFPNWSNDPPRLFAVEKRDALEHHHHHH | failed
5 | MVIREALLYIAMLKLEIEALQREYEDLKITKKESLHQFQEVKVEKIGEMFQVKIKSPRGENNLVNILEAFEEMGLNVAQARASCLDSFAMEAIVAPQSKDKLCSVDDLTQTLVKALVKPSVPL | failed
6 | MVIRVYIASSSGSTAIKKKQQDVLGFLEANKIGFEEKDIAANEENRKWMRENVPENSRPATGYPLPPQIFNESQYRGDYDAFFEARENNAVYAFLGLTAPPGSKEAEV | not failed
7 | MVKALFSLLFVAFIWGSTFPIQKIVLVGVSPTFYIAVRFFIAALVSYFLFGKGNVKYGSILGTLLGIAYTTQTWGLTITTSTKSGFITSMYIVFVPVFAYLLEREIPTIFQIVSFFAASLGLYMISGGIKDFNFGDFLTLICAVSFALHVVLITMFSKRVKEVDLLFPQFLVVGILNLILNFFWKNWNFTLPALGSAVFTALAATILAIYLQAKYQKALGNNVSAIVFLGEPVFAAVVSYFMLGETMAGKQLLGAALLLISMLFSSLERVKIVRDANQKGRDECEDSL | failed
8 | MVKCLSAHNKAPHVSVITPSYNSRRFIGETILSVQNQSYENWEMIIVDDCSTDQSAAKIKEIIEGDSRIRLLSLKENVGAAKARNLAIREARGRYIAFLDSDDIWLPHKLKTQLLFMEEMNIAFSYASYSLIDENGNELNREVSVPKSVDYHYLVGNTIIGCLTVMIDREKIPYVEMPSVQPEDTALWLNLLHEGHEAKGIQQVLAKYRIVANSVSSNKVRAAFRYWKLLRDQKSLNAVQSFYYFSKYAYHAYKKNKINVVGKTQLLEHHHHHH | failed
9 | MVKCMKPGKAVILLQGRYTGKKAVIVKSFDDGTVEKKYGHCLVAGLKKYPSKVIRKDSAKKTAKKSRVKCFFKVINYQHVMPTRYTLDLDLKNVVSADAISSKDKKVTALKEAKAKFEERFKTGKNRWFFTKLRF | failed
10 | MVKIGVCGPVGSGKTALIEALTRHMSKDYDMAVITNDIYTKEDAEFMCKNSVMPRERIIGVETGGCPHTAIREDASMNLEAVEEMHGRFPNLELLLIESGGDNLSATFNPELADFTIFVIDVAEGDKIPRKGGPGITRSDLLVINKIDLAPYVGADLKVMERDSKKMRGEKPFIFTNIRAKEGLDDVIAWIKRNALLED | failed
11 | MVKLDRYIGSSVFMAILAVLGIILGLASLFAFIDEMGAVNETYTVVDVMSYVALTAPRRVYEMLPMAGLIGCLIGLGSLASNSELTIMRAAGVSVGRIVWAVMKPMLVLMLVGVLVGEYVAPATETQAQASRALAQGSGDAQSSKHGLWHRQGDEFIHINAVQPNGLLYGVTRYHFDDQRHMLSSSFARQARFHEDYWQLTDVTTTYFRDGHTEVISVPGERWDVALSPQLLSTVVMAPESLSISGLWGYIHYLADQGLNNGRYWLAFWVKVLQPLVTAALVLMAISFIFGPLRSVTLGQRVFTGVLVGFTFRIAQDLLGPSSLVFGFSPLFAVLVPAGICAVAGVWLLRRAG | failed
12 | MVKLNSNPSEKGTKPPSVEDGFQTVPLITPLEVNHLQLPAPEKVIVKTRTEYQPEQKNKGKFRVPKIAEFTVTILVSLALAFLACIVFLVVYKAFTYDHSCPEGFVYKHKRCIPASLDAYYSSQDPNSRSRFYTVISHYSVAKQSTARAIGPWLSAAAVIHEPKPPKTQGH | failed
13 | MVKNGIILGKRYEVISKIGAGGMADVYKGKDHMLNRYVAIKVLKKEFKEDENFVRKFRSEAQAAAGLIHPNVVNVYDVGEDRGLYYMVMELVEGITLKEYIDKKGRLSHKETISIAIQMCTGIGVAHAANIIHRDIKPQNIIISKDGKVKVTDFGIAKATTSNTISSNAMGSVHYTSPEQARGGFSDQKSDIYSIGITLYEMVTGQVPFDGDSTVSVAIKHLQEEITPPSEIVPDIPYSLEQIILKCTQKNGERRYRNTGELIQDLKRSLVDPDGDFVVIPPLGNADTVIITDEELDDIRSSYDDEEEFDEYDEDEYGDEEEFDEYDEDDDEYDEYDDDEEYGGKGKKGKSSDDVNPRMKKVMKILTIVVAIIIVFILVFAIGKAAGIFKGGFGIDTVDTDEKTKVKVPNVVGMTEDEAKKTLNKKGLGFKVVAREESKKYEEGTVSKQKTEAGKRVAKNTTIQVVVSSGLVGDEITVPNVSNMSESEAQKALEDAGFEKITSDFAYSDSVAEGDVIGTTPAANARATKDTEIVMKVSKGSEKKTVPNVVGQQDGDAQNAITAAGLTVGTVTYEYYDDVPKGQVVSQTVAGGKKVAPGTSVGLTISSGPKPPEKVSVPPVTGISIEEARALLDGVGLKADIKYDSETVGTVGQVIKCNPGVGTQVDEGSTVTLIVISKSSQPDGGETESTQ | failed
14 | MVKSKVKKVEKGKEGEEKRSTYVLLKKVLIPILVFGFAIYAFYLRHLTAGKYFPDPDTFYHFEIYKLVLKEGLPRYYPMSDAPFGSLIGEPLGLYLLPAAFYKVVSLFGYNELQAFLLWPPFVGFLGVIAVYLLGRKVLNEWTGLWGAVVLTVSTANFSRTFSGNARGDGPFMALFIFASVAMLYYLKESNKTRKIIYGTLFVLLTVISLGAWNGSPFGLMVLLGFASLQTIILFIFGKLEELKKFVKEFYPAYLAILAFGYALTFPGIVKIGGFIRFAFEVFLGLIFLLVIMLYGGRYLNYSDKKHRFLVVTIIVLLGFGGAYAYVGPKLFRLMGGAYQSTQVYETVQELAKTTIGDVKAYYGVESGNGLIFFLSIPGLLILLTKYLYDLFKKAKSDNETLFALVFYTMSLYLLYLAVRFLFLASYAVALFFGIFIGFSMDVIEKMKENIGIKAALGIVLSLMILVIPFVHAPVLARSARALKNTEIEVTGWEQALKWLRSNTSKYATATSWWDYGYWIESSLLGNRRASADGGHARDRDHILALFLARDGNISEVDFESWELNYFIIYLNDWAKFNAISYLGGAITRKEYNGDENGRGRVTTILLTQAAGNVYVNPYARIVIKVIQQNKTRRIAVNIGQLECSPILSVAFPGNIKIKGSGRCSDGSPFPYVVYLTPSLGVLAYYKVATSNFVKLAFGIPTSSYSEFAEKLFSNFIPVYQYGSVIVYEFRPFAIYKIEDFINGTWREVGKLSPGKHTLRLYISAFGRDIKNATLYVYALNGTKIIKRIKVGEIKYMNHLEEYPIIVNVTLPTAQKYRFILAQKGPVGVLTGPVRVNGKITNPAYIMREGESGRLELKVGVDKEYTADLYLRATFIYLVRKGGKSNEDYDASFEPHMDTFFITKLKEGIKLRPGENEIVVNAEMPKNAISSYKEKLEKEHGDKLIIRGIRVEPVFIVEKEYTMIEVSASAPHHSSE | failed
15 | MVKTMSEVNFNSKAFTYADNALVQKSASEVLLNLLSIQPEEDVLDIGCGPGHITKKIAKITNGSVQGIDVSQGMIEQAISSNKDLPNLKYSVMDAENLELNTKFDVIVCNSCFQWFQKPDQVLMRCFNVLKEGGRIGIQAPATQSYCPNFISAIEKIRMHPYTREVFNHFKSPWFFFDSKDEYEQLFRNHGFDIIYSELREESNLFSVEQAYKIYQSGAENGYLNQSYYTVTLTDNYISTFRELVKEALQEQADNSGMINLKFERIYLVAKKQ | failed
16 | MVKVPVLRIGKVAAPTGADHALAGSAFPAKNAIADVNPPASPWIDKSVAAQRTEKAGLAAPRSEVTLDFVPPVTRRTPRITFPRRGRSDWTHSLTNSLRMSDTALVAAAVFAGFALNTNGLSLAAESPAFTHHLMTGLILGLVWLGALEVYRTRDPKVLGVGPEEYKRVLSASFRVFGFLGIVAVVFRLDAVSSFVLVSLPLGLVALTGSRWSFRRWLSHEKSRGRCLSRAIVVGEPQDVRYVIKQINRKSGAAYDILGACLPGARRGAVLKVDHLRVPVLSSIYGIAHTVRQTGANAVIVAGPVPGGNQFIQELGWQLEENAAELVLAATLTNVAGPRIHWRPVEGLPLMHVDIPHYSGGKHTLKRLMDITVSASALLILSPILLLLAAIVHHDSPGPVLFRQERVGRRGTTFHMLKFRSMVVDAESRLEELNTRDEGAGVLFKIRGDPRITRCGRWMRKYSLDELPQFWNVLVGNMSLVGPRPPLAREVSGYERHTHRRLLIKPGITGLWQINGRSDLPWDEAVRLDLYYVENWSIAGDLIIMWRTFRAMIQPSGAY | failed
17 | MVKYEELLKTLENGINSEEGEIRLVRKSQGRFKEEFNFDLSLGSKPLLTLKVFLGRKPYWQPWVEVFGVNPNLRNVFFGSEAERKLYEFLSEHFGRIFVEYFEDKETTYELQKGVPPALSRLGFELLKLGYTYFRDWYIPEGLMEGGHKIQAEKPKTEEAKKRHLENLKKEFEEFIGKCEDEGLIKKVKERYNFLEHEGSS | not failed
18 | MVLETPVCSPIDKESSSDDVQLNKPPKKKRKLDVVYPPRDNTSSSSDVKPKVPGYCGVKAIGCNRSDELLAEVALHSYNSQTGTNLELMTVTQVMLQSVAHINYHMILDAFDPANNSLSSIEICLWDAAVKNNEKLRLVTTFCSLEGSGDKGSQWDPNGVDVLYTGVMPKWLDDGALSGSEKLHYYEVNDSDLQENKWLHLYAQVGAYSKWDLGMVKHFPLEIKKVVVQTMEDDIESNLKLKSSNAIFYITFTTSGGVECACIIRQTRNGRPQHMCLEINNVEMDK | failed
19 | MVLMRYVGKRDLFTVGKYLGTIMQGVGFVVALPVFVAIIYGEGNLQSFIIPAFISLGAGTVLKRYLPEECSVRLKHGMMVACLAWLWAGLIGSLIMISALNIDFTNAFFENMSAWTGSGLTIFSSVESLPKSILFLRSLEQWIGGLGVVIVVIGILIRPGTAASRLYKSEARDERIKPSIANTVKTIWWIYITYTVLGIVLYGLTGMPLFDAINNTLTNLSTGGMSIKNMNIGYYHSAAVYLVTMLLMILGGTSFLVHYQLIKGRFFSVLHDIQLQATVVFISIFTILAVYVGGVAPLESIYHVISALSCTGSSISSTPQMVAWPAYFKVLLITCMLIGMAAGSTTGAVKIIRVITVLKGVYWEIMRILAPEGSVMPRKISGKSVSDTEIREAGSYISLYFVLLFFTWSVLVVYGYDPLNSLFEAASAQGNVGLSMGITSFNLPVVPKMALILSMWLGRLEIIPVIVLIRGLVEAFKAG | failed
